Results on one molecule are retold here after article PMC11040352, “CD38‐Specific Gallium‐68 Labeled Peptide Radiotracer Enables Pharmacodynamic Monitoring in Multiple Myeloma with PET” (Advanced Science, 2024).

In general, Kd refers to the equilibrium constant for the complex coming apart.

The target of this assay is His-Tagged human CD38 (recombinant) (human) (UniProt P28907). As to the kind of experiment: SPR; Biacore T200, CM5 chip, 25 °C; His-tagged CD38 captured by immobilised anti-His antibody (human about 860 RU, mouse 1360 RU); AJ206 as analyte, 300 × 10^-9 M down to 1.2 × 10^-9 M; PBS-P + 1% DMSO, pH 7.4; 50 µL/min; contact 120 s, dissociation 360 s. A general note: Surface plasmon resonance follows binding to a sensor surface in real time, without labels.

Starred links: 1 amine or outer side, 2 acyl side, 3 side chain; linkers in the order of their positions; H or OH if unused. Positions of bridges follow the written chain, without caps; N, C: chain ends. Primed or numbered codes have the meaning given here. *: point of attachment. NOTA = O=C(O)CN1CCN(CC(=O)O)CCN(CC(=O)*)CC1; TBMB = c1c(C[*:1])cc(C[*:3])cc1C[*:2]; PEG3′ = not defined here

With {NOTA-PEG3′}-ACVPCADFPIWYC-NH2 (linker 2-5-13 via TBMB) [AJ206], the Kd is 19.1 nM.
